Data taken from publication PMC4764553, “Human cytomegalovirus IE1 protein alters the higher-order chromatin structure by targeting the acidic patch of the nucleosome” (eLife, 2016).
Like-named read-outs stand apart in the source and are kept apart here.

Assays:
Experiment in all cases: ITC
[1] = system: IE1-CTD (chromatin-tethering domain peptide);human histone octamer WT (human cytomegalovirus;Homo sapiens)
[2] = system: IE1 full length;human histone octamer WT (human cytomegalovirus (Towne);Homo sapiens)
[3] = system: IE1-CTD (chromatin-tethering domain peptide);human histone octamer WT (human cytomegalovirus;Homo sapiens); remark: listed apart in the source

147-bp Widom 601 (human NCP)
Kd [1]: 2250 nM | Kd [2]: 11.3 µM | Kd [3]: 400 nM
